# B1: PpAOS1 (Physcomitrium patens) (protein)
# chain: MAVPSSKLPLKAIPGDYGVPYFGAIKDRLDYFWLQGEEQFYRSRMAKYNSTVFRVNMPPGPPISEHPQVICLLDQKSFPILFDVSKVEKKDVFTGTYMPSVSFTSGYRVCSYLDPSEERHTKLKQWCFEVIAMNGRNFLPEFHKSIEESMVLWETSLAKGEKTSVSDEVKQFAFNFLMRAVCHHDPAAPGEYSLGRNGGPYATAWANPQLAPIAGQTGLPHVVEELVLHTVPLPSALVKKNYDALYNFIKNYATEALDRAEAMGIERNDATANLLFFLCFNAYGGFSIFFPLITILISSCGPELMHDLHDEVTKAVAATDGKVTLQSIENMPLVKSVVYEAFRFKPPVPYQYGKAKFDFTIENHENSFEVKKGEMLYGYQPIVMHDPKVFSDPDQFLPRRFMGPDGEKLIKYIFWSNGYETDEPTTANKQCAGKDLVVTMARAFVAEMFLRYKEYTLTMEGAGNATKVFFSDLKK
# notes: cDNA from protonema library; N-terminal His6 tag kept (pQE30), E. coli SG13009[pRep4]
# Columns and labels:
# Test in all cases: purified protein
# Format in all cases: biochemical, Physcomitrium patens
# purified protein [1] = substrate: CC/C=C\C/C=C\C=C\[C@H](CCCCCCCC(=O)O)OO; settings: pH 6.5, room temperature, 0.1 nM enzyme, kcat corrected to 100% heme
# purified protein [2] = substrate: CCCCC/C=C\C=C\[C@H](C/C=C\CCCCC(=O)O)OO; settings: pH 6.5, room temperature, 0.05 nM enzyme, kcat corrected to 100% heme
# purified protein [3] = substrate: CCCCC[C@@H](/C=C/C=C\C/C=C\CCCCC(=O)O)OO; settings: pH 6.5, room temperature, 0.05 nM enzyme, kcat corrected to 100% heme
# purified protein [4] = substrate: CC/C=C\C[C@@H](/C=C/C=C\CCCCCCCC(=O)O)OO; settings: pH 6.5, room temperature, 0.1 nM enzyme, kcat corrected to 100% heme
# purified protein [5] = substrate: CCCCC[C@@H](/C=C/C=C\CCCCCCCC(=O)O)OO; settings: pH 6.5, room temperature, 0.1 nM enzyme, kcat corrected to 100% heme
# purified protein [6] = substrate: CCCCC/C=C\C[C@@H](/C=C/C=C\C/C=C\CCCC(=O)O)OO; settings: pH 6.5, room temperature, 0.1 nM enzyme, kcat corrected to 100% heme
# purified protein [7] = substrate: CCCCC/C=C\C=C\[C@H](CCCCCCCC(=O)O)OO; settings: pH 6.5, room temperature, 0.1 nM enzyme, kcat corrected to 100% heme
protein,measurement,setting,value
B1,Km,purified protein [1],39 ± 14 µM
same,Vmax,purified protein [1],0.2 µM/min
same,kcat,purified protein [1],112 s⁻¹
same,kcat/Km,purified protein [1],2.87e+06 M⁻¹ s⁻¹
same,Km,purified protein [2],46 ± 17 µM
same,Vmax,purified protein [2],2.35 µM/min
same,kcat,purified protein [2],2610 s⁻¹
same,kcat/Km,purified protein [2],5.71e+07 M⁻¹ s⁻¹
same,Km,purified protein [3],107 ± 57 µM
same,Vmax,purified protein [3],2.77 µM/min
same,kcat,purified protein [3],3080 s⁻¹
same,kcat/Km,purified protein [3],2.88e+07 M⁻¹ s⁻¹
same,Km,purified protein [4],95 ± 27 µM
same,Vmax,purified protein [4],0.9 µM/min
same,kcat,purified protein [4],501 s⁻¹
same,kcat/Km,purified protein [4],5.27e+06 M⁻¹ s⁻¹
same,Km,purified protein [5],83 ± 42 µM
same,Vmax,purified protein [5],0.96 µM/min
same,kcat,purified protein [5],531 s⁻¹
same,kcat/Km,purified protein [5],6.4e+06 M⁻¹ s⁻¹
same,Km,purified protein [6],7 ± 2 µM
same,Vmax,purified protein [6],0.23 µM/min
same,kcat,purified protein [6],128 s⁻¹
same,kcat/Km,purified protein [6],1.96e+07 M⁻¹ s⁻¹
same,Km,purified protein [7],121 ± 61 µM
same,Vmax,purified protein [7],0.98 µM/min
same,kcat,purified protein [7],545 s⁻¹
same,kcat/Km,purified protein [7],4.5e+06 M⁻¹ s⁻¹

# Reference: paper PMC3552686, “Biosynthesis of allene oxides in Physcomitrella patens” (BMC Plant Biology, 2012)
